B1: General transcription factor IIH subunit 4 (Homo sapiens), Q92759 (parent)
chain: MESTPSRGLNRVHLQCRNLQEFLGGLSPGVLDRLYGHPATCLAVFRELPSLAKNWVMRMLFLEQPLPQAAVALWVKKEFSKAQEESTGLLSGLRIWHTQLLPGGLQGLILNPIFRQNLRIALLGGGKAWSDDTSQLGPDKHARDVPSLDKYAEERWEVVLHFMVGSPSAAVSQDLAQLLSQAGLMKSTEPGEPPCITSAGFQFLLLDTPAQLWYFMLQYLQTAQSRGMDLVEILSFLFQLSFSTLGKDYSVEGMSDSLLNFLQHLREFGLVFQRKRKSRRYYPTRLAINLSSGVSGAGGTVHQPGFIVVETNYRLYAYTESELQIALIALFSEMLYRFPNMVVAQVTRESVQQAIASGITAQQIIHFLRTRAHPVMLKQTPVLPPTITDQIRLWELERDRLRFTEGVLYNQFLSQVDFELLLAHARELGVLVFENSAKRLMVVTPAGHSDVKRFWKRQKHSS
partner: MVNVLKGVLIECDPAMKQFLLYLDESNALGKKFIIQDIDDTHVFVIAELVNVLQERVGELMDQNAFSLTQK

Variants of B1 are the subject of the assay. The conditions noted are these: with tf2h5_human GTF2H5, Q6ZYL4.
Turning to K438A;R439A, the “effect of a mutation on the interaction” value is reported as “decreasing interaction”.
